Assay [1] deals with if4e_human EIF4E (UniProt P06730).
Assay [2] has the same target. The source holds these as a separate data set.

Chain of if4e_human EIF4E (P06730 whole entry): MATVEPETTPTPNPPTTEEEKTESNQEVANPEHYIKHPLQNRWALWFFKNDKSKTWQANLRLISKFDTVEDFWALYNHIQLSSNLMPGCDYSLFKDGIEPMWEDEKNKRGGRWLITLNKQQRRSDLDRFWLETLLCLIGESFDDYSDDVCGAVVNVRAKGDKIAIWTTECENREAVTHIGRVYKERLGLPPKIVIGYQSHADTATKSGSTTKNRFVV

For “Leucine-rich PPR motif-containing protein, mitochondrial (Homo sapiens) (from UniProt P42704) Y583A”, in assay [1], the “effect of a mutation on the interaction” value is “disrupting interaction”.

As to “Leucine-rich PPR motif-containing protein, mitochondrial (Homo sapiens) (from UniProt P42704) Y441A”, the “effect of a mutation on the interaction” value in assay [2] is “disrupting interaction”.

(Values after IntAct's records for PubMed 19262567.)
